# Source: patent publication US20120230990A1 (MERCK SERONO, published 2012)
# Columns and labels:
# mouse IL-22RA-ECD = target: T1, mouse IL-22RA-ECD (mouse, UniProt Q80XZ4 16-230); assay: KinExA and Biacore, IL-22RA-ECD with 6 His tag
# T1 construct: extracellular domain; Produced in HEK-293 cells and NiNTA-purified; not shown: 6 His tag
# T1 sequence (looked up): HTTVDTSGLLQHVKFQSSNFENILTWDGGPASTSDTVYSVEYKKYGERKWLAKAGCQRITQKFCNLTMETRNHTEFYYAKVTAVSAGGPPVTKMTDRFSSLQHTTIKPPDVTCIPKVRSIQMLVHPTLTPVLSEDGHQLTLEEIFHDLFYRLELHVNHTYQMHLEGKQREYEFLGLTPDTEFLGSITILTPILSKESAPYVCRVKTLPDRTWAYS
# [1] = target: T2, murine IL-22RA on cells (HEPA1-6 hepatoma cells, BaF3 cells transfected with murine IL-22RA and IL-10RB) (murine, UniProt Q80XZ4 16-581); assay: cell-based or functional assay
# T2 sequence (looked up): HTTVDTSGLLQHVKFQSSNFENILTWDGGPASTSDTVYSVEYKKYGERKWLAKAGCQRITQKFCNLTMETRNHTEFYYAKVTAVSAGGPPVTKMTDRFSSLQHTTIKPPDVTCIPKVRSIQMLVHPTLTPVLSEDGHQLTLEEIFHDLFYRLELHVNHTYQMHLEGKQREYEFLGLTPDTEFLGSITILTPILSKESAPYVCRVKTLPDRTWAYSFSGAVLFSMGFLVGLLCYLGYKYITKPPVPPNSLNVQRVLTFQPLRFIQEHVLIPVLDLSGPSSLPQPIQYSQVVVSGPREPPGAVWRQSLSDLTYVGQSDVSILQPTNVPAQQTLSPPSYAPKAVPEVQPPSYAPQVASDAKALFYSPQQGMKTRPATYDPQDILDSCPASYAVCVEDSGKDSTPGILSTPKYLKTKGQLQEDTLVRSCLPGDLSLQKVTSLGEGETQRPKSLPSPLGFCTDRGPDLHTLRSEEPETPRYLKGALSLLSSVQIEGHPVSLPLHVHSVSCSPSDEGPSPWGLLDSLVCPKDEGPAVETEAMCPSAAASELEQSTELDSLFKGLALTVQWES
# [2] = target: T3, human IL-10 receptor alpha (human, UniProt Q13651 22-235, limits assumed); assay: competitive ELISA: biotinylated 280-346-TSY on plate-coated human IL-22RA-ECD, soluble competitor titrated, peroxidase-conjugated streptavidin, OD 450nm
# T3 construct: also called hIL-10R; IL-10R alpha
# T3 sequence (looked up): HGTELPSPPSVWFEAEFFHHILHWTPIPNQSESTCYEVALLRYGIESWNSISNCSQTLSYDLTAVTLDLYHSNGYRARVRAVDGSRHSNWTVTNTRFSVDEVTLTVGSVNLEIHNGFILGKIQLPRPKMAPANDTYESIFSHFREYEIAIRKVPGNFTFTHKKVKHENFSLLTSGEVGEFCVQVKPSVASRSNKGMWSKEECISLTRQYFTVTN
# Procedure: (§1) FIG. 23 reports the results of a competitive ELISA done to measure the specificity of 280.346.TSY to human IL-22RA. Microtiter plates were coated with human IL-22RA-ECD (i.e. IL-22RA-Extra Cellular Domain). Biotinylated 280-346-TSY antibody was added to the plate in the presence of competitors: human interleukin 22 receptor alpha (hIL-22RA), human IL-22 binding protein (hIL-22BP), murine IL-22 receptor alpha (mIL-22RA), human IL-10 receptor alpha (hIL-10R) and human IL-20 receptor alpha (hIL-20R).
# (§2) Specificity and binding affinity of 280.346.TSY was determined using a competitive ELISA. Microtiter plates were coated with human IL-22RA-ECD (i.e. IL-22RA-Extra Cellular Domain). Biotinylated 280-346-TSY antibody was added to the plate in the presence of competitors: human interleukin 22 receptor alpha (hIL-22RA), human IL-22 binding protein (hIL-22BP), mouse IL-22 receptor alpha (mIL-22RA), human IL-10 receptor alpha (hIL-10R) and human IL-20 receptor alpha (hIL-20R).
# [3] = target: T4, human IL-22 binding protein (human, UniProt Q969J5-2 22-231, limits assumed); assay: as above
# T4 construct: also called hIL-22BP; IL-22BP
# T4 sequence (looked up): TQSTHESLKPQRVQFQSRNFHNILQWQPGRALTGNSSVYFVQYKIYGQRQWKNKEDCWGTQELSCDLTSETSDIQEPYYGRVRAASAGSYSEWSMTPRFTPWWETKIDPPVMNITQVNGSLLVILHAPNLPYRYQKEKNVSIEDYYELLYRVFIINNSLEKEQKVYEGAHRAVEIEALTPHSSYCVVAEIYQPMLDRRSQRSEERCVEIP
# Procedure: as §1, §2
# [4] = target: T5, human IL-20 receptor alpha (human, UniProt Q9UHF4 30-250, limits assumed); assay: as above
# T5 construct: also called hIL-20R; IL-20R alpha
# T5 sequence (looked up): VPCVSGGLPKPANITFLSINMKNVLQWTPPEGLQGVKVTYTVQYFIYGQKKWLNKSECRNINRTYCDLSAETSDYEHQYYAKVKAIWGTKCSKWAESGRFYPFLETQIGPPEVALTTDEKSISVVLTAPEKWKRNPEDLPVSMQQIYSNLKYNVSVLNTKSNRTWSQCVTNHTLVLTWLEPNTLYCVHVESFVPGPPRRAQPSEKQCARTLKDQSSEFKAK
# Procedure: as §1, §2
binder,measurement,setting,value
"280.346.TSY (humanized anti-human IL-22RA antibody comprising 280.VH3-66-46 paired with 280.VK4-1-TSY, human IgG1/kappa) (antibody, V domains shown, Produced in CHO cells; also called 280.VH3-66-46/VK4-1-TSY; 280.VH3-66.46 paired with 280.IGKV4-1-TSY) VH: EVQLVESGGGLVQPGGSLRLSCAASGYSITAEYMNWVRQAPGKGLEWIGEINPSTGTTTYNQKFKGRFTISVDQSKNTAYLQMNSLRAEDTAVYYCARFDAYFDYWGQGTLVTVSS VL: not shown",fold lower affinity compared to human IL-22RA,mouse IL-22RA-ECD,~100 fold
same,"IC50, STAT3 phosphorylation assay in murine HEPA1-6 hepatoma cells stimulated with recombinant murine IL-22",[1],2.1 nM
same,"IC50, proliferation assay in BaF3 cells transfected with murine IL-22RA and IL-10RB, cultured with recombinant murine IL-22",[1],0.137 nM
same,"fold potency against the mouse parental antibody 280.46.3.4, proliferation of mouse IL-22 receptor transfected BaF3 cells",[1],6.2 fold
same,binding result,[2],no binding
same,binding result,[3],no binding
same,binding result,[4],no binding
